Data on three substances can be found in PMC4368477.

The target of the assay is HA head of H1N1 A/Solomon Islands/3/2006 (Influenza A virus, A/Solomon Islands/3/2006 (H1N1)). The assay can be described thus: BLI.

Take “CH65 Fab with light-chain reversion R29S”: the Kd was 1.21 µM.

“CH67 Fab with light-chain reversion R29S”: the Kd stood at 0.37 µM, the koff is 0.019 s⁻¹ and the kon amounted to 52000 M⁻¹ s⁻¹.

In turn, “CH67 Fab with light-chain reversions D33H and R31S” came in with a dissociation constant Kd of 1.5 µM and an off-rate constant (koff) of 0.067 s⁻¹.
